Assay results as given in patent US20070092518A1 (published 2007).
Residue numbers refer to the chain shown, from its start.

B1: SEQ ID NO 65 (Fab, V domains shown)
VH: EVQLVESGGGLVQPGGSLRLSCRASGFIFSNHWMNWVRQAPGKGLEWIGEIRSKSIYGATHYAESVKGRFIISRDDNKNSLYLEMNSLKTEDTAEYYCAQNYYGSTYDYWGQGTLVTVS
VL: EIVLTQSPDFQSVTPKEKVTITCRASQFVGSSIHWYQQKPDQSPKLLIKYASESMSGVPSRFSGSGSGTDFTFTISSLEAEDAATYYCQQSHSWPFTFGPGTKVDIK
notes: Fab, E. coli lysate
B2: SEQ ID NO 74 (Fab, V domains shown)
VH: B1 VH with V5T, R23A, F27S, I28T, I56S, G58S, H61S, Y82T, Q100R, Y107P
VL: B1 VL
notes: Fab, E. coli lysate
B3: SEQ ID NO 75 (Fab, V domains shown)
VH: B1 VH with I28T, G58S, Y82T, Q100R, Y107P
VL: B1 VL
notes: Fab, E. coli lysate
B4: SEQ ID NO 93 (Fab, V domains shown)
VH: B1 VH with V5T, I28T, W33Y, I56S, K78G, N79T, S80D, Y107P
VL: B1 VL
notes: Fab, E. coli lysate
B5: SEQ ID NO 94 (Fab, V domains shown)
VH: B1 VH with F27S, Y57N, K78G, N79T, Q100R
VL: B1 VL
notes: Fab, E. coli lysate
B6: SEQ ID NO 85 (Fab, V domains shown)
VH: B1 VH with V5T, I56S, Y57N, H61S, D76G, K78G, N79T, Y82T
VL: B1 VL
notes: Fab, E. coli lysate
B7: SEQ ID NO 76 (Fab, V domains shown)
VH: B1 VH with V5T, W33Y, Y57N, K78G, N79T, Q100R
VL: B1 VL
notes: Fab, E. coli lysate
B8: SEQ ID NO 109 (Fab, V domains shown)
VH: B1 VH with F27S, I56S, Y57N, G58S, S80D, Y82T, Q100R
VL: B1 VL
notes: Fab, E. coli lysate
B9: SEQ ID NO 104 (Fab, V domains shown)
VH: B1 VH with V5T, G26Q, W33Y, Y57N, G58S, S80D, Y107P
VL: B1 VL
notes: Fab, E. coli lysate
B10: SEQ ID NO 67 (Fab, V domains shown)
VH: B1 VH with V5T, I28T, W33Y, G58S, D76G, N79T, S80D, Y82T, Q100R, Y107P
VL: B1 VL
notes: Fab, E. coli lysate
B11: SEQ ID NO 100 (Fab, V domains shown)
VH: B1 VH with V5T, G26Q, W33Y, Y57N, N79T, S80D, Q100R
VL: B1 VL
notes: Fab, E. coli lysate
B12: SEQ ID NO 81 (Fab, V domains shown)
VH: EVQLVESGGGLVQPGGSLRLSCRASGSTFSNHYMNWVRQAPGKGLEWIGEIRSKSINSATSYAESVKGRFIISRDGNGTDLTLEMNSLKTEDTAEYYCAQNYYGSTYDYWGQGTLVTVS
VL: B1 VL
notes: Fab, E. coli lysate
B13: SEQ ID NO 69 (Fab, V domains shown)
VH: B1 VH with G26Q, I28T, I56S, Y57N, G58S, D76G, K78G, Q100R
VL: B1 VL
notes: Fab, E. coli lysate
B14: SEQ ID NO 73 (Fab, V domains shown)
VH: B1 VH with F27S, W33Y, I56S, H61S, S80D, Y82T, Y107P
VL: B1 VL
notes: Fab, E. coli lysate
B15: SEQ ID NO 68 (Fab, V domains shown)
VH: B1 VH with V5T, G26Q, Y57N, G58S, S80D, Y82T, Q100R
VL: B1 VL
notes: Fab, E. coli lysate
B16: SEQ ID NO 77 (Fab, V domains shown)
VH: B12 VH with R23A, N57Y, G76D, T79N, D80S, T82Y
VL: B1 VL
notes: Fab, E. coli lysate
B17: SEQ ID NO 89 (Fab, V domains shown)
VH: B12 VH with G26Q, S27F, S58G, G76D, T82Y, Q100R
VL: B1 VL
notes: Fab, E. coli lysate
B18: SEQ ID NO 110 (Fab, V domains shown)
VH: B12 VH with R23A, T28I, Y33W, G76D, G78K, T82Y, Y107P
VL: B1 VL
notes: Fab, E. coli lysate
B19: SEQ ID NO 79 (Fab, V domains shown)
VH: B1 VH with R23A, G26Q, F27S, W33Y, D76G, S80D, Y82T, Q100R, Y107P
VL: B1 VL
notes: Fab, E. coli lysate
B20: SEQ ID NO 99 (Fab, V domains shown)
VH: B1 VH with R23A, F27S, W33Y, I56S, Y57N
VL: B1 VL
notes: Fab, E. coli lysate
B21: SEQ ID NO 97 (Fab, V domains shown)
VH: B12 VH with V5T, Y33W, I56S, S58G, G76D, T82Y
VL: B1 VL
notes: Fab, E. coli lysate
B22: SEQ ID NO 108 (Fab, V domains shown)
VH: B12 VH with V5T, R23A, G26Q, S27F, N57Y, G78K, T79N, D80S
VL: B1 VL
notes: Fab, E. coli lysate
B23: SEQ ID NO 66 (Fab, V domains shown)
VH: B12 VH with V5T, S27F, N57Y, S61H, G76D, G78K, Q100R
VL: B1 VL
notes: Fab, E. coli lysate
B24: SEQ ID NO 95 (Fab, V domains shown)
VH: B12 VH with V5T, I56S, G76D, G78K, D80S, T82Y, Q100R
VL: B1 VL
notes: Fab, E. coli lysate
B25: SEQ ID NO 88 (Fab, V domains shown)
VH: B12 VH with R23A, S27F, Y33W, I56S, G78K, T79N, Q100R
VL: B1 VL
notes: Fab, E. coli lysate
B26: SEQ ID NO 106 (Fab, V domains shown)
VH: B12 VH with R23A, G26Q, S27F, T28I, Y33W, I56S, S58G, G78K
VL: B1 VL
notes: Fab, E. coli lysate
B27: SEQ ID NO 101 (Fab, V domains shown)
VH: B12 VH with S27F, I56S, G76D, T79N, D80S, T82Y, Y107P
VL: B1 VL
notes: Fab, E. coli lysate
B28: SEQ ID NO 72 (Fab, V domains shown)
VH: B12 VH with V5T, T28I, N57Y, S61H, D80S, T82Y
VL: B1 VL
notes: Fab, E. coli lysate
B29: SEQ ID NO 92 (Fab, V domains shown)
VH: B12 VH with R23A, T28I, Y33W, I56S, S61H, G78K, T79N, Q100R
VL: B1 VL
notes: Fab, E. coli lysate
B30: SEQ ID NO 91 (Fab, V domains shown)
VH: B12 VH with V5T, R23A, G26Q, T28I, S61H, G78K, T79N, T82Y, Q100R, Y107P
VL: B1 VL
notes: Fab, E. coli lysate
B31: SEQ ID NO 111 (Fab, V domains shown)
VH: B1 VH with V5T, W33Y, Y57N, G58S, K78G, Q100R, Y107P
VL: B1 VL
notes: Fab, E. coli lysate
B32: SEQ ID NO 87 (Fab, V domains shown)
VH: B1 VH with R23A, I28T, I56S, Y57N, G58S, D76G, N79T, Q100R
VL: B1 VL
notes: Fab, E. coli lysate
B33: SEQ ID NO 102 (Fab, V domains shown)
VH: B1 VH with Y57N, N79T, Q100R
VL: B1 VL
notes: Fab, E. coli lysate
B34: SEQ ID NO 84 (Fab, V domains shown)
VH: B1 VH with R23A, G26Q, F27S, I28T, I56S, G58S, D76G, S80D, Q100R
VL: B1 VL
notes: Fab, E. coli lysate
B35: SEQ ID NO 105 (Fab, V domains shown)
VH: B1 VH with V5T, R23A, W33Y, I56S, Y57N, H61S, K78G, Y82T, Y107P
VL: B1 VL
notes: Fab, E. coli lysate
B36: SEQ ID NO 83 (Fab, V domains shown)
VH: B1 VH with V5T, W33Y, Y57N, H61S, K78G, Q100R, Y107P
VL: B1 VL
notes: Fab, E. coli lysate
B37: SEQ ID NO 98 (Fab, V domains shown)
VH: B1 VH with V5T, I28T, I56S, Y57N, D76G, N79T, S80D, Q100R, Y107P
VL: B1 VL
notes: Fab, E. coli lysate

Molecular target: T1, human tumor necrosis factor-α (rHuTNF-alpha, Biosource) (human, UniProt P01375 77-233)
T1 construct: Bought recombinant protein coated on ELISA plates; The TNFα of the Biacore assay is not described further; also called TNFα; human TNFα
T1 sequence (P01375 77-233 limits assumed): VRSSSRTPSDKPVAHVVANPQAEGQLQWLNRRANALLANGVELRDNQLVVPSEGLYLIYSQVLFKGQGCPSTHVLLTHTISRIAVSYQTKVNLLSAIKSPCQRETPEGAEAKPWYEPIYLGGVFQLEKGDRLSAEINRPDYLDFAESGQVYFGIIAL
Assay: solid-phase ELISA, Fab lysate on coated rHuTNF-alpha
Method: The Fab libraries were cloned into pTrcHis2A (Cat. No. V365-20, Invitrogen, Carlsbad, Calif.). Proteins were expressed in E. coli and solid-phase ELISA was used to assess Fab binding to human TNFα. Briefly, 96-well plates were coated overnight at 4° C. with 1 μg/ml of rHuTNF-alpha (Biosource, Camarillo, Calif.) in Carbonate-bicarbonate buffer, pH9.4. After washing in PBS with 0.05% (w/v) Tween-20, the wells were blocked with 1% (w/v) BSA in PBS for 1 hour at room temperature. After washing, plates were incubated with transformed E. coli cell lysate diluted in the assay buffer (1% BSA and 0.05% Tween-20 in 10 mM PBS) for 2 hours at room temperature. Various concentrations of infliximab (0.5, 1 and 2 ng/ml) were used as positive anti-Human Kappa Light Chain Biotin/anti-penta-His Biotin control. Plates were washed and incubated with ImmunoPure Goat Anti-Human Kappa Chain, Biotin Conjugated (Cat. No. 31780, Pierce Biotechnology, Rockford, Ill.) and Penta-His Biotin Conjugate (Cat. No. 34440, QIAGEN, Valencia, Calif.) diluted 1:2000 in the assay buffer for 1 hour at room temperature. Following another washing step, plates were probed for 1 hour at room temperature with 100 μL/well of Streptavidin POD (Cat. No. 1089153, Roche Applied Science, Indianapolis, Ind.) diluted 1:4000 in the assay buffer. Plates were further washed and then incubated with 3,3′,5,5′-tetramentylbenzidine (TMB, Cat. No. 34028, Pierce Biotechnology) for 30 minutes. Substrate development was stopped by addition of 100 μL/well TMB Stop Solution (Cat. No. 50-85-05, KPL, Gaithersburg, Md.) and the absorbance was measured at 450 nm via an automated plate spectrophotometer.

Does B1 bind?
Result: binds

Does B2 bind?
Result: binds

Does B3 bind?
Result: binds

Does B4 bind?
Result: binds

Does B5 bind?
Result: binds

Does B6 bind?
Result: binds

Does B7 bind?
Result: binds

Does B8 bind?
Result: binds

Does B9 bind?
Result: binds

Does B10 bind?
Result: binds

Does B11 bind?
Result: binds

Does B12 bind?
Result: binds

Does B13 bind?
Result: binds

Does B14 bind?
Result: binds

Does B15 bind?
Result: binds

Does B16 bind?
Result: binds

Does B17 bind?
Result: binds

Does B18 bind?
Result: binds

Does B19 bind?
Result: binds

Does B20 bind?
Result: binds

Does B21 bind?
Result: binds

Does B22 bind?
Result: binds

Does B23 bind?
Result: binds

Does B24 bind?
Result: binds

Does B25 bind?
Result: binds

Does B26 bind?
Result: binds

Does B27 bind?
Result: binds

Does B28 bind?
Result: binds

Does B29 bind?
Result: binds

Does B30 bind?
Result: binds

Does B31 bind?
Result: binds

Does B32 bind?
Result: binds

Does B33 bind?
Result: binds

Does B34 bind?
Result: binds

Does B35 bind?
Result: binds

Does B36 bind?
Result: binds

Does B37 bind?
Result: binds
